Laboratory results: paper PMC4505582 (The Journal of Biological Chemistry, 2015)
Blank lines part the entries; values can stand above or below the binder they belong to.

B1: F-ATPase subunit F6 (natural protein, bovine, UniProt P02721 33-108, looked up)
chain: NKELDPVQKLFVDKIREYRTKRQTSGGPVDAGPEYQQDLDRELFKLKQMYGKADMNTFPNFTFEDPKFEVVEKPQS
notes: ATP synthase coupling factor 6, mitochondrial, bovine; endogenous subunit of the peripheral stalk of the purified F-ATPase; printed length 76 amino acids; source: purified from bovine mitochondrial membranes as part of the F-ATPase complex
B5: F-ATPase subunit d (natural protein)
chain: not shown
notes: ATP synthase subunit d, mitochondrial, bovine; endogenous subunit of the peripheral stalk of the purified F-ATPase; source: purified from bovine mitochondrial membranes as part of the F-ATPase complex
B7: F-ATPase subunit f (natural protein, bovine, UniProt Q28851 1-88, looked up)
chain: MASVVPLKEKKLLEVKLGELPSWILMRDFTPSGIAGAFQRGYYRYYNKYVNVKKGSIAGLSMVLAAYVFLNYCRSYKELKHERLRKYH
notes: ATP synthase subunit f, mitochondrial, bovine; endogenous supernumerary membrane subunit of the purified F-ATPase; source: purified from bovine mitochondrial membranes as part of the F-ATPase complex

How the values were obtained:
Conditions in all cases: both partners purified
F-ATPase subunit b [1] = biological target: T1, F-ATPase subunit b (bovine, UniProt P13619 43-256); experiment: cross-linking; purified monomeric bovine F-ATPase (2 μM, 1.16 mg/ml) in detergent and phospholipids reacted with 2 mM DSS(d0/d12), pH 8.0, 2 h; tryptic digest, cation exchange fractionation, linked lysines identified by mass spectrometry
T1 construct: ATP synthase subunit b, mitochondrial, bovine; endogenous subunit of the peripheral stalk of the purified F-ATPase; source: purified from bovine mitochondrial membranes as part of the F-ATPase complex
T1 sequence (looked up): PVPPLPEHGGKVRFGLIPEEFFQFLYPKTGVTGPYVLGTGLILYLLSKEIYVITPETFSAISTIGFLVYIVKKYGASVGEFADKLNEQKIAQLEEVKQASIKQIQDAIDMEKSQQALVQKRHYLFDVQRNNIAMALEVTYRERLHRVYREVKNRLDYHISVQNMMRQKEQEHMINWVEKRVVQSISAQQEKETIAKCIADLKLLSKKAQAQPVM

F-ATPase subunit d [2] = biological target: B5; experiment: as above
F-ATPase α-subunit = biological target: T2, F-ATPase α-subunit (bovine, UniProt P19483 44-553); experiment: as above
T2 construct: ATP synthase subunit alpha, mitochondrial, bovine; endogenous subunit of the F1 domain of the purified F-ATPase (three copies in the enzyme); also called subunit α; source: purified from bovine mitochondrial membranes as part of the F-ATPase complex
T2 sequence (P19483 44-553): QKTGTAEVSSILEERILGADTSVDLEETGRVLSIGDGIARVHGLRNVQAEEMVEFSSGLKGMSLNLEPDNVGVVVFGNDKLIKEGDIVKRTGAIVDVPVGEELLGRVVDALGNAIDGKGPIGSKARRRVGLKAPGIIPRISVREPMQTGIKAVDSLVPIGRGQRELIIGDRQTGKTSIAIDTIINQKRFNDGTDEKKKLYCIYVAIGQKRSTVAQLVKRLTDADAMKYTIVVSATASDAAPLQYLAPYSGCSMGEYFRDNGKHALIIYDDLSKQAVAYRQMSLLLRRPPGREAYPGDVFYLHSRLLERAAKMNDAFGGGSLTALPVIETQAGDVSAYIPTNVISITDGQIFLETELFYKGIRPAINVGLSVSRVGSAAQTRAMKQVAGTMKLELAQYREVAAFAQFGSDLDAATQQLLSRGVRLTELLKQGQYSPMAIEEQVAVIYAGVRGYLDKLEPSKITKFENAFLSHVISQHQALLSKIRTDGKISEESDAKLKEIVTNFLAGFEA

F-ATPase subunit b [3] = biological target: T1, F-ATPase subunit b; experiment: as above; remark: listed apart in the source
F-ATPase subunit d [4] = biological target: B5; experiment: as above; remark: listed apart in the source
F-ATPase subunit F6 = biological target: B1; experiment: as above
F-ATPase subunit f = biological target: B7; experiment: as above
F-ATPase subunit b [5] = biological target: T1, F-ATPase subunit b; experiment: cross-linking; purified monomeric bovine F-ATPase reacted with BS^3(d0/d12) at the same concentration and under the same conditions as DSS; tryptic digest, linked lysines identified by mass spectrometry
[6] = biological target: T3, F-ATPase subunit 6.8PL (6.8-kDa proteolipid) (bovine, UniProt P14790 1-60); experiment: cross-linking; purified monomeric bovine F-ATPase (2 μM, 1.16 mg/ml) in detergent and phospholipids reacted with 2 mM DSS(d0/d12), pH 8.0, 2 h; tryptic digest, cation exchange fractionation, linked lysines identified by mass spectrometry
T3 construct: 6.8 kDa mitochondrial proteolipid, bovine; endogenous supernumerary membrane subunit of the purified F-ATPase; source: purified from bovine mitochondrial membranes as part of the F-ATPase complex

F-ATPase subunit g = biological target: T4, F-ATPase subunit g (bovine, UniProt Q28852 1-103); experiment: cross-linking; purified monomeric bovine F-ATPase reacted with BS^3(d0/d12) at the same concentration and under the same conditions as DSS; tryptic digest, linked lysines identified by mass spectrometry
T4 construct: ATP synthase subunit g, mitochondrial, bovine; endogenous supernumerary membrane subunit of the purified F-ATPase; source: purified from bovine mitochondrial membranes as part of the F-ATPase complex
T4 sequence (looked up): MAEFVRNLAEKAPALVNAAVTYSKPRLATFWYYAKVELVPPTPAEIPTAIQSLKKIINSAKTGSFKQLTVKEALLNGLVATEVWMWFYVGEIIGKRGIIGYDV

Binder: B1
binding result (F-ATPase subunit b [1]): binds
binding result (F-ATPase subunit d [2]): binds

B2: F-ATPase subunit oscp (natural protein, bovine, UniProt P13621 24-213, looked up)
chain: FAKLVRPPVQIYGIEGRYATALYSAASKQNKLEQVEKELLRVGQILKEPKMAASLLNPYVKRSVKVKSLSDMTAKEKFSPLTSNLINLLAENGRLTNTPAVISAFSTMMSVHRGEVPCTVTTASALDEATLTELKTVLKSFLSKGQVLKLEVKIDPSIMGGMIVRIGEKYVDMSAKTKIQKLSRAMREIL
notes: ATP synthase subunit O (oligomycin sensitivity conferral protein), mitochondrial, bovine; endogenous subunit of the peripheral stalk of the purified F-ATPase; source: purified from bovine mitochondrial membranes as part of the F-ATPase complex
binding result (F-ATPase α-subunit): binds

Binder: B5
binding result (F-ATPase subunit b [5]): binds

Binder: B7
binding result (F-ATPase subunit g): binds

Next, values leading:

binding result (F-ATPase subunit b [3]): binds
binding result (F-ATPase subunit d [4]): binds
binding result (F-ATPase subunit F6): binds
B3: F-ATPase subunit ATP8 (natural protein, bovine, UniProt P03929 1-66, looked up)
chain: MPQLDTSTWLTMILSMFLTLFIIFQLKVSKHNFYHNPELTPTKMLKQNTPWETKWTKIYLPLLLPL
notes: ATP synthase protein 8 (A6L), encoded in mitochondrial DNA, bovine; endogenous membrane subunit of the purified F-ATPase; C terminus at residue 66 as printed; also called A6L; source: purified from bovine mitochondrial membranes as part of the F-ATPase complex

binding result (F-ATPase subunit f): binds
B4: F-ATPase subunit e (natural protein, bovine, UniProt Q00361 1-71, looked up)
chain: MVPPVQVSPLIKLGRYSALFLGMAYGAKRYNYLKPRAEEERRLAAEEKKKRDEQKRIERELAEAQEDTILK
notes: ATP synthase subunit e, mitochondrial, bovine; endogenous supernumerary membrane subunit of the purified F-ATPase; source: purified from bovine mitochondrial membranes as part of the F-ATPase complex

binding result [6]: binds
B6: F-ATPase subunit DAPIT (diabetes-associated protein in insulin-sensitive tissues) (natural protein, bovine, UniProt Q3ZBI7 1-58, looked up)
chain: MAGPEADAQFHFTGIKKYFNSYTLTGRMNCVLATYGSIALIVLYFKLRSKKTPAVKAT
notes: DAPIT (diabetes-associated protein in insulin-sensitive tissues), bovine; endogenous supernumerary membrane subunit of the purified F-ATPase; source: purified from bovine mitochondrial membranes as part of the F-ATPase complex
